Experimental data reported in patent publication US20170210813A1 (Regeneron, published 2017).

T1: Macaca fascicularis PDGFRb.mmh (Macaca fascicularis)
T1 construct: Soluble monomeric construct; also called mfPDGFRb.mmh
T1 chain: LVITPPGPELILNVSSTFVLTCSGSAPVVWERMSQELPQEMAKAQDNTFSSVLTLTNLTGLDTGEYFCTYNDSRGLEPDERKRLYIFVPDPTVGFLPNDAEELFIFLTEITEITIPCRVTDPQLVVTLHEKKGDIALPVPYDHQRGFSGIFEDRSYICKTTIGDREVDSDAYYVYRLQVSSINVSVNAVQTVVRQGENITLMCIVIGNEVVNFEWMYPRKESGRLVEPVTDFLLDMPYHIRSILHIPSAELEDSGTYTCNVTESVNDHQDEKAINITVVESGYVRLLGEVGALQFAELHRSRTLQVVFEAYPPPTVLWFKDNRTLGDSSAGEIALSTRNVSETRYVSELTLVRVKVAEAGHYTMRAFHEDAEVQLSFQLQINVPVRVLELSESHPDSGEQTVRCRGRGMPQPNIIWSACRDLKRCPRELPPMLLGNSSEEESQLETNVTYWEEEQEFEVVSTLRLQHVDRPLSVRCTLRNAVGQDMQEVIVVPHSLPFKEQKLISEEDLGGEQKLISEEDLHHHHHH

T2: PDGFR-beta extracellular domain construct D1 (human)
T2 chain: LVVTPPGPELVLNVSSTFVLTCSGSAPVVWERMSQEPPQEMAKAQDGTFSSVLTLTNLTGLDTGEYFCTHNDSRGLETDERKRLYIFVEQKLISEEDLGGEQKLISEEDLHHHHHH


Assays:
human PDGFRb.hFc [1] = target: T3, human PDGFRb.hFc (human); assay: SPR, mAb captured, 25 C
T3 construct: Soluble dimeric construct with human Fc; also called hPDGFRb.hFc
Experimental: (§1) Antibodies, expressed as either mouse Fc (prefix H1M; H2M) or human Fc (prefix H4H), were captured on their respective anti-Fc sensor surfaces (Mab capture format). […] Kinetic association (kₐ) and dissociation (kd) rate constants were determined by processing and fitting the data to a 1:1 binding model using Scrubber 2.0 curve fitting software.

hPDGFRb.mmh [2] = target: T4, hPDGFRb.mmh (human, UniProt P09619 33-531); assay: Octet BLI cross-competition, 25 C; hPDGFRb.mmh on anti-Penta-His tips pre-saturated with mAb-1 H4H3365N (row 2)
T4 construct: Soluble monomeric construct; also called soluble human PDGFR-beta.mmh
Method in brief: (§2)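 Step one loads the first antibody at 50 μg/mL onto receptor-coated tips for 5 min. Step two saturates the tips with a second anti-PDGFR-beta antibody, whose real-time binding is monitored in HBST at 1000 rpm.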

hPDGFRb.mmh [3] = target: T4, hPDGFRb.mmh; assay: blocking ELISA, biot-hPDGFRb.mmh to coated PDGF-BB
hPDGFRb.mmh [4] = target: T4, hPDGFRb.mmh; assay: Octet BLI cross-competition, 25 C; hPDGFRb.mmh on anti-Penta-His tips pre-saturated with mAb-1 H4H3310N (row 9)
Experimental: (§3) A cross-competition assay was conducted to assess the ability of select antibodies to compete with one another for binding to human PDGFR-beta. […] Each PDGFR-beta.mmh-coated sensor tip was saturated for 5 min with a first anti-PDGFR-beta antibody (Mab #1; 50 μg/mL). Next, each sensor tip was saturated with a solution of a second anti-PDGFR-beta antibody (Mab #2). The real time response of Mab #2 binding to PDGR-beta.mmh pre-complexed with Mab #1 was then monitored. All assays were performed at 25° C. with a flow rate of 1000 rpm on an Octet RED384 biosensor in Octet HBST buffer according to manufacturer's instructions (ForteBio Corp., Menlo Park, Calif.). Results are illustrated in FIG. 2.

[5] = target: T1, Macaca fascicularis PDGFRb.mmh; assay: SPR, mAb captured, 37 C
Experimental: as §1

hPDGFRb.mmh [6] = target: T4, hPDGFRb.mmh; assay: SPR, mAb captured, 37 C
Experimental: as §1

human PDGFRb.hFc [7] = target: T3, human PDGFRb.hFc; assay: SPR, mAb captured, 37 C
Experimental: as §1

hPDGFRb.mmh [8] = target: T4, hPDGFRb.mmh; assay: Octet BLI cross-competition, 25 C; hPDGFRb.mmh on anti-Penta-His tips pre-saturated with mAb-1 Control I (row 1)
Method in brief: as §2

hPDGFRb.mmh [9] = target: T4, hPDGFRb.mmh; assay: Octet BLI cross-competition, 25 C; hPDGFRb.mmh on anti-Penta-His tips pre-saturated with mAb-1 H4H3099S (row 6)
Method in brief: as §2

[10] = target: T5, full length human PDGFR-beta on HEK293 cells (human, UniProt P09619 33-1106); assay: cell-based or functional assay
[11] = target: T2, PDGFR-beta extracellular domain …; assay: SPR, mAb captured, construct as analyte
Experimental: Four different anti-PDGFR-beta antibodies were tested for binding to the various constructs by surface plasmon resonance (Biacore). Briefly, 150-200 RU's of anti-PDGFR beta antibody was captured via an anti-human Fc CM5 chip. Next, the individual domain constructs, or full-length PDGFR beta, was applied over the antibody-bound surface at a concentration of 50nM. The ability of the various antibodies to bind to the various domain constructs was measured. (−)=No binding observed; (+)=Binding observed; ND=Not determined.

[12] = target: T5, full length human PDGFR-beta on HEK293 …; assay: cell-based or functional assay; remark: listed apart in the source
hPDGFRb.mmh [13] = target: T4, hPDGFRb.mmh; assay: Octet BLI cross-competition, 25 C; hPDGFRb.mmh on anti-Penta-His tips pre-saturated with mAb-1 H4H3103S (row 4)
Experimental: as §3

| Binder | Kd (human PDGFRb.hFc [1]) [nM] | koff (human PDGFRb.hFc [1]) [s⁻¹] | kon (human PDGFRb.hFc [1]) [M⁻¹ s⁻¹] | t1/2 (human PDGFRb.hFc [1]) [min] | % Maximum Blocking (hPDGFRb.mmh [3]) [%] | IC50 (hPDGFRb.mmh [3]) [nM] | Kd [5] [nM] | koff [5] [s⁻¹] | kon [5] [M⁻¹ s⁻¹] | t1/2 [5] [min] | Kd (hPDGFRb.mmh [6]) [nM] | koff (hPDGFRb.mmh [6]) [s⁻¹] | kon (hPDGFRb.mmh [6]) [M⁻¹ s⁻¹] | t1/2 (hPDGFRb.mmh [6]) [min] | Kd (human PDGFRb.hFc [7]) [nM] | koff (human PDGFRb.hFc [7]) [s⁻¹] | kon (human PDGFRb.hFc [7]) [M⁻¹ s⁻¹] | t1/2 (human PDGFRb.hFc [7]) [min] | Percent Internalization (Relative to Control I) [10] [%] | binding result [11] | other results |
| --- | --- | --- | --- | --- | --- | --- | --- | --- | --- | --- | --- | --- | --- | --- | --- | --- | --- | --- | --- | --- | --- |
| H4H3305N (antibody, human IgG4, V domains shown, human IgG4 Fc (H4H prefix)) VH: QLQLQESGPGLVKPSETLSLTCIVSGGSISSSSYYWGWIRQPPGKGLEWIGSLYYSGITFYNPSLKSRVTISVDTSKNQFSLTLTSVTAADTAVFYCARHRVMASSPFDHWGQGTLVTVSS VL: not shown | 0.248 | 3.42e-05 | 138000 | 338 | 86 | 0.3 | 2.04 | 0.00039 | 191000 | 30 | 1.93 | 0.000355 | 184000 | 33 | 0.197 | 4.85e-05 | 247000 | 238 | 79 | no binding (tested: 50nM) | Response of mAb-2 Binding to hPDGFRβ.mmh Pre-Complexed with mAb-1 (nm) (hPDGFRb.mmh [2]): 0.26 nm; Response of mAb-2 Binding to hPDGFRβ.mmh Pre-Complexed with mAb-1 (nm) (hPDGFRb.mmh [4]): 0.01 nm; Response of mAb-2 Binding to hPDGFRβ.mmh Pre-Complexed with mAb-1 (nm) (hPDGFRb.mmh [8]): 0.22 nm; Response of mAb-2 Binding to hPDGFRβ.mmh Pre-Complexed with mAb-1 (nm) (hPDGFRb.mmh [9]): 0 nm; IC50, blocking PDGF-BB (250 pM) activation, SRE-luciferase [12]: 5e-10 M; IC50, blocking PDGF-DD (400 pM) activation, SRE-luciferase [12]: 4.8e-10 M; Response of mAb-2 Binding to hPDGFRβ.mmh Pre-Complexed with mAb-1 (nm) (hPDGFRb.mmh [13]): 0.25 nm |
| H4H3374N (antibody, human IgG4, V domains shown, human IgG4 Fc (H4H prefix)) VH: QLQLQESGPGLVKPSETLSLTCTVSGGSITSSSYYWGWIRQPPGKGLEWIGSIYYRGSTNYNPSLKSRVTISVDSSKNQFYLKVSSVTAVDTAVYYCARQNGAARPSWFDPWGQGTLVTVSS VL: EIVLTQSPDTISLSPGERATLSCRASQSISSIYLAWYQQKPGQAPRLLIYGASSRVTGIPDRFSVSGSGTDFTLTISRLEPEDFAVYYCQHYGISPFTFGPGTKVDIR | 0.148 | 8.93e-05 | 600000 | 129 | 86 | 0.12 | 2.63 | 0.00177 | 670000 | 7 | 1.84 | 0.00126 | 685000 | 9 | 0.178 | 0.000291 | 1.63e+06 | 40 | 81 | no binding (tested: 50nM) | Response of mAb-2 Binding to hPDGFRβ.mmh Pre-Complexed with mAb-1 (nm) (hPDGFRb.mmh [2]): 0.01 nm; Response of mAb-2 Binding to hPDGFRβ.mmh Pre-Complexed with mAb-1 (nm) (hPDGFRb.mmh [4]): 0.26 nm; Response of mAb-2 Binding to hPDGFRβ.mmh Pre-Complexed with mAb-1 (nm) (hPDGFRb.mmh [9]): 0.27 nm; IC50, blocking PDGF-BB (250 pM) activation, SRE-luciferase [12]: 1.3e-10 M; IC50, blocking PDGF-DD (400 pM) activation, SRE-luciferase [12]: 1.5e-10 M; Response of mAb-2 Binding to hPDGFRβ.mmh Pre-Complexed with mAb-1 (nm) (hPDGFRb.mmh [13]): 0.02 nm |
| H4H3099S (antibody, human IgG4, V domains shown, human IgG4 Fc (H4H prefix)) VH: QITLKESGPTLVKPTQTLTLTCTFSGFSLTTTGVGVGWIRQPPGKALEWLALIYWNDLKRYSPSLKNRLTITKDTSRHQVVLTMTNMDPMDTATYYCAHRPLYYGSGSGWFDPWGPGTTVTVSS VL: not shown | 0.23 | 5.48e-05 | 238000 | 211 | 91 | 0.097 | 2.17 | 0.000652 | 300000 | 18 | 2.39 | 0.000639 | 267000 | 18 | 0.193 | 0.000105 | 540000 | 110 | 88 | no binding (tested: 50nM) | Response of mAb-2 Binding to hPDGFRβ.mmh Pre-Complexed with mAb-1 (nm) (hPDGFRb.mmh [2]): 0.33 nm; Response of mAb-2 Binding to hPDGFRβ.mmh Pre-Complexed with mAb-1 (nm) (hPDGFRb.mmh [8]): 0.28 nm; IC50, blocking PDGF-BB (250 pM) activation, SRE-luciferase [12]: 2.1e-10 M; IC50, blocking PDGF-DD (400 pM) activation, SRE-luciferase [12]: 1.9e-10 M; Response of mAb-2 Binding to hPDGFRβ.mmh Pre-Complexed with mAb-1 (nm) (hPDGFRb.mmh [13]): 0.34 nm |
| H4H3094P (antibody, human IgG4, V domains shown, also called H4H3394P) VH: EVQLVESGGGLVQPGGSLRLSCAASGFTFSSYWMSWVRQAPGKGLEWVANMNQDGSETHYVDSVKGRLSISRDNAKKSLFLHMNSLRAEDTAVYFCARDLVPPRQDDYYYYFGMDVWGHGTTVTVSS VL: DIQMTQSPSTLSASVGDRVTITCRASQSISDWLAWYQQKPGKAPKLLIFKASTLESGVPSRFSGSGSGTEFTLTISSLQPDDFATYYCQQYNSYSRTFGQGTKVEIK | 0.256 | 6.2e-05 | 242000 | 186 | 85 | 0.12 | 6.69 | 0.0017 | 253000 | 7 | 6.58 | 0.00147 | 223000 | 8 | 0.877 | 0.000248 | 283000 | 47 | 77 | no binding (tested: 50nM) | Response of mAb-2 Binding to hPDGFRβ.mmh Pre-Complexed with mAb-1 (nm) (hPDGFRb.mmh [4]): 0.25 nm; Response of mAb-2 Binding to hPDGFRβ.mmh Pre-Complexed with mAb-1 (nm) (hPDGFRb.mmh [8]): -0.01 nm; Response of mAb-2 Binding to hPDGFRβ.mmh Pre-Complexed with mAb-1 (nm) (hPDGFRb.mmh [9]): 0.25 nm; IC50, blocking PDGF-BB (250 pM) activation, SRE-luciferase [12]: 4e-10 M; IC50, blocking PDGF-DD (400 pM) activation, SRE-luciferase [12]: 3.9e-10 M; Response of mAb-2 Binding to hPDGFRβ.mmh Pre-Complexed with mAb-1 (nm) (hPDGFRb.mmh [13]): 0.02 nm |
